# Measured values from EP4559472A1.
# Target: Biotinylated C4b (UniProt P0C0L4)
# Assay: SPR, biotinylated C4b on streptavidin chip, 1:1 steady-state affinity model
# Sequence of mini-C4BP (P08603 other isoform, or with tags, fused parts or gaps): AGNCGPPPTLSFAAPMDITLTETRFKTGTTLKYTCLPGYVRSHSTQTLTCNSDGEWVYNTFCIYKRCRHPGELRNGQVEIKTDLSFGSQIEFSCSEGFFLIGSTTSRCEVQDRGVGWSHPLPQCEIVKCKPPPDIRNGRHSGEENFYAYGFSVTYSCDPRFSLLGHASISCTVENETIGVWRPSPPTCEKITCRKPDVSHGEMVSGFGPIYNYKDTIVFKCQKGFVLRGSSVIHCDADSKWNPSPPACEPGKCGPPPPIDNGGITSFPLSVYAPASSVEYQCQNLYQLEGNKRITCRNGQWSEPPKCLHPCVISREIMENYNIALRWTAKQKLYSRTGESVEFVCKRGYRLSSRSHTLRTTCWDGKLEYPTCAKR
substance,measurement,value
mini-C4BP (from UniProt P08603 1107-1231),Kd,600 nM
